# Results published in publication PMC8322077, “Antibody toolkit reveals N-terminally ubiquitinated substrates of UBE2W” (Nature Communications, 2021).
# Target: T1, biotinylated ubiquitin (UniProt P0CG48 1-76, biotin)
# T1 construct: ubiquitin (monoubiquitin); also called biotin-Ub; monoubiquitin; source: bought: Boston Biochem (Cat# UB-570)
# Assay: BLI; Octet Red384; biotinylated ubiquitin immobilised on streptavidin biosensors; analyte fourfold dilutions starting at 5 μM; 25 °C; 150 mM NaCl, 20 mM Tris 7.5, 1 mg/mL BSA, 0.01% Tween-20, 1 mM TCEP; association 180 s, dissociation 300 s
# Conditions: both partners purified
binder,measurement,value
"UCHL5^WT (enzyme, UniProt Q9Y5K5 1-329, looked up, ubiquitin C-terminal hydrolase L5 (UCHL5), full-length wild type; also called UCH37; source: E. coli BL21-Gold(DE3), purified (Ni-NTA, SEC)) MTGNAGEWCLMESDPGVFTELIKGFGCRGAQVEEIWSLEPENFEKLKPVHGLIFLFKWQPGEEPAGSVVQDSRLDTIFFAKQVINNACATQAIVSVLLNCTHQDVHLGETLSEFKEFSQSFDAAMKGLALSNSDVIRQVHNSFARQQMFEFDTKTSAKEEDAFHFVSYVPVNGRLYELDGLREGPIDLGACNQDDWISAVRPVIEKRIQKYSEGEIRFNLMAIVSDRKMIYEQKIAELQRQLAEEEPMDTDQGNSMLSAIQSEVAKNQMLIEEEVQKLKRYKIENIRRKHNYLPFIMELLKTLAEHQQLIPLVEKAKEKQNAKKAQETK",binding result,binds
